Patent US9999664B2, “HIV-1 gp120 mini V3 loop and uses thereof” (The Scripps Research Institute, priority 2011, dated 2018)

Assays:
[1] = molecular target: HIV-1 JR-FL envelope (Env) on pseudovirus (HIV-1 JR-FL); assay: cell-based or functional assay
[2] = molecular target: HIV-1 JR-CSF envelope (Env) on pseudovirus (HIV-1 JR-CSF) (UniProt P20871); assay: cell-based or functional assay
[3] = molecular target: HIV-1 BaL envelope (Env) on pseudovirus (HIV-1 BaL); assay: cell-based or functional assay
[4] = molecular target: gp120 JR-FL (HIV-1 JR-FL); assay: gp120 ELISA
[5] = molecular target: gp120 JR-CSF (HIV-1 JR-CSF) (UniProt P20871); assay: gp120 ELISA

Substance	Fold change in neutralization (IC50 variant/IC50 WT antibody) [1] [fold]	Fold change in neutralization (IC50 variant/IC50 WT antibody) [2] [fold]	Fold change in neutralization (IC50 variant/IC50 WT antibody) [3] [fold]	fold change in gp120 binding (EC50 variant/EC50 WT) [4] [fold]	fold change in gp120 binding (EC50 variant/EC50 WT) [5] [fold]
PGT 128 IgG variant HC C32A (antibody)	> 3000	> 2000	> 4000	–	–
PGT 128 IgG variant HC C32A C52bA (antibody)	> 3000	> 2000	> 4000	–	–
PGT 128 IgG variant HC C52bA (antibody)	> 3000	> 2000	> 4000	–	–
PGT 128 IgG variant HC D100dA (antibody)	0.3	0.5	–	0.1	0.1
PGT 128 IgG variant HC F79A (antibody)	–	0.9	–	0.6	0.5
PGT 128 IgG variant HC K64A (antibody)	1.3	1.2	–	0.4	0.8
PGT 128 IgG variant HC K75A (antibody)	2.9	2.9	–	1.6	2.1
PGT 128 IgG variant HC P74A (antibody)	1.2	0.8	–	0.8	0.9
PGT 128 IgG variant HC S28A (antibody)	0.9	1.2	–	0.6	0.8
PGT 128 IgG variant HC T73A (antibody)	77.6	1.6	–	2.2	1.6
PGT 128 IgG variant HC T100cA (antibody)	1.2	1.5	–	0.9	1.2
PGT 128 IgG variant LC D95aA (antibody)	> 3000	68.5	> 4000	–	–
PGT 128 IgG variant LC N94A (antibody)	1.3	3.5	–	1.1	0.7
PGT 128 IgG variant LC W95A (antibody)	> 3000	> 2000	> 4000	–	–
